B1: mRNA-splicing (parent)
chain: AGUUGCUGCUGGGAGCUCCAGCACAGUGAAAUGGACAGAAGGGCAGAGCAA

Variants of: B1
Assay: exon inclusion enrichment index; higher = more inclusion; WT1 exon 5 minigene, HEK293

Row | Variant | exon inclusion enrichment index
1 | AGUUCACACAGGGAGCUCCAGCACAGUGAAAUGGACAGAAGGGCAGUCCAA [G5C C6A U7C G8A U10A A47U G48C] | 0.0757
2 | AGUUGCUGCUGGGAGCUCCAGCACAGUGAAAUGGACAGCAGGGCAGAGCAA [A39C] | 0.0251
3 | AGUUGACGACGGGAGCUCCAGCACAGUGAAAUGGACGAAAGGGCAGAGCAA [C6A U7C C9A U10C A37G G38A] | 3
4 | AGUUGACGAUGGGAGCUCCAGCACAGUGAAAUGGACAGAAGGGCAGAGCAA [C6A U7C C9A] | 1.99
5 | AGUUCUUCUCGAUAGCUCCAGCACAGUGAAAUGGACAGAAGGGCAGAGCAA [G5C C6U G8C C9U U10C G12A G13U] | 0.128
6 | AGUUUCUUUUGGGAGCUCCAGCACAGUGAAAUGGACCGAAGGGCAGAGCAA [G5U G8U C9U A37C] | 0.465
7 | AGUUGACCGCGGGAGCUCCAGCACAGUGAAAUGGACAGAAGGGCAGAGCAA [C6A U7C G8C C9G U10C] | 2.26
8 | AGUUGAAGAAGGGAGCUCCAGAGCAGUGAAAUGGACAGAAGGGCAGAGCAA [C6A U7A C9A U10A C22A A23G] | 0.734
9 | AGUUUCUUUUGGGAGCUCCAGCUGAGUGAAAUGGACAGAAGGGCAGAGCAA [G5U G8U C9U A23U C24G] | 0.223
10 | AGUUGACGACGGGAGCUCCAGCACAGUGAAAUGGACAGAAGGGCGUAGCAA [C6A U7C C9A U10C A45G G46U] | 2.89
11 | AGUUGAAGAAGCAAGCUCCAGCACAGUGAAAUGGACAGAAGGGCAGAGCAA [C6A U7A C9A U10A G12C G13A] | 1.72
12 | AGUUAUAUAUGGGCUCUCCAGCACAGUGAAAUGGACAGAAGGGCAGAGCAA [G5A C6U U7A G8U C9A A14C G15U] | 0.0114
13 | AGUUGCUGCUGGGAGCUCCAGCAAGGUGAAAUGGACAGAAGGGCAGAGCAA [C24A A25G] | 0.315
14 | AGUUAUAUAUGGGAGCUCCAGCACAGUGAAAUGGAGCGAAGGGCAGAGCAA [G5A C6U U7A G8U C9A C36G A37C] | 0.0098
15 | AGUUCGCGCCGGGAGCUCCAGCACCAUGAAAUGGACAGAAGGGCAGAGCAA [G5C C6G U7C U10C A25C G26A] | 4.67
16 | AGUUAUAUAUGGCCGCUCCAGCACAGUGAAAUGGACAGAAGGGCAGAGCAA [G5A C6U U7A G8U C9A G13C A14C] | 0.039
17 | AGUUUCUUUUGGGAGCUCCAGCACAGUGAACUGGACAGAAGGGCAGAGCAA [G5U G8U C9U A31C] | 0.202
18 | AGUUGCUGCUGGGAGCUCCAUCACAGUGAAAUGGACAGAAGGGCAGAGCAA [G21U] | 1.52
19 | AGUUGACGACGGGAGCUCCAGCACAGUGAAAUGGACAGAAGGGCACCGCAA [C6A U7C C9A U10C G46C A47C] | 2.51
20 | AGUUGACGACGGGAGCUAUAGCACAGUGAAAUGGACAGAAGGGCAGAGCAA [C6A U7C C9A U10C C18A C19U] | 0.374
21 | AGUUCUUCUCGGGAGCUCCAGGGCAGUGAAAUGGACAGAAGGGCAGAGCAA [G5C C6U G8C C9U U10C C22G A23G] | 0.846
22 | AGUUCACACAGCCAGCUCCAGCACAGUGAAAUGGACAGAAGGGCAGAGCAA [G5C C6A U7C G8A U10A G12C G13C] | 0.0502
23 | AGUUCUUCUCGGGAGCUCCAGCAGGGUGAAAUGGACAGAAGGGCAGAGCAA [G5C C6U G8C C9U U10C C24G A25G] | 0.981
24 | AGUUGCUGCUGGGAGCUCCAGCACAGUGAAAGGGACAGAAGGGCAGAGCAA [U32G] | 0.0106
25 | AGUUCACACAGGGAGCUCCAGCACAGCUAAAUGGACAGAAGGGCAGAGCAA [G5C C6A U7C G8A U10A U27C G28U] | 0.0768
26 | AGUUAGGGAUGGGAGCUCCAGCAACGUGAAAUGGACAGAAGGGCAGAGCAA [G5A C6G U7G C9A C24A A25C] | 0.0413

Row | Variant | exon inclusion enrichment index
27 | AGUUGACGAAGGGAGCUCCAGCACAGUGAAAUGGACAGAAGGGCAGAGCAA [C6A U7C C9A U10A] | 1.36
28 | AGUUGCUGCUGGGAAGUCCAGCACAGUGAAAUGGACAGAAGGGCAGAGCAA [G15A C16G] | 0.0571
29 | AGUUCGCGCCGGGAGCUCCACUACAGUGAAAUGGACAGAAGGGCAGAGCAA [G5C C6G U7C U10C G21C C22U] | 3.43
30 | AGUUCACACAGAUAGCUCCAGCACAGUGAAAUGGACAGAAGGGCAGAGCAA [G5C C6A U7C G8A U10A G12A G13U] | 0.016
31 | AGUUGAAGAAGGGAGCUUCAGCACAGUGAAAUGGACAGAAGGGCAGAGCAA [C6A U7A C9A U10A C18U] | 0.387
32 | AGUUAGGGAUGGGAGCUCCAGCACAGUGAAAUGGUCAGAAGGGCAGAGCAA [G5A C6G U7G C9A A35U] | 0.000728
33 | AGUUCUUCUCGGGAGCUCCGACACAGUGAAAUGGACAGAAGGGCAGAGCAA [G5C C6U G8C C9U U10C A20G G21A] | 2.38
34 | AGUUGAAGAAGGGAGCUCCAGCACAGUGAAAUGGACAGAAGGGGCGAGCAA [C6A U7A C9A U10A C44G A45C] | 1.44
35 | AGUUCUUCUCGGGAGCUCCAGCACAGUGAAACAGACAGAAGGGCAGAGCAA [G5C C6U G8C C9U U10C U32C G33A] | 0.84
36 | AGUUUCUUUUGGGAGCUCCAGCACAGUGAAAUGGACAGAAGGGCAGAGCAA [G5U G8U C9U] | 0.16
37 | AGUUAGGGAUGGGAGCUCCAGCACAGUGAAAUGGACAGAAGGAAAGAGCAA [G5A C6G U7G C9A G43A C44A] | 0.0069
38 | AGUUGCACCUGGGAGCUCCAGCACAGUGAAAUGGACAGAAGGGCAGAGCAA [U7A G8C] | 1.67
39 | AGUUGCUGCUGGGAGCUCCUCCACAGUGAAAUGGACAGAAGGGCAGAGCAA [A20U G21C] | 2.37
40 | AGGGACCACCGGGAGCUCCAGCACAGUGAAAUGGACAGAAGGGCAGAGCAA [U3G U4G G5A U7C G8A U10C] | 1.93
41 | AGUUUCUUUUGGGAGCUCCAGCACAGUGAAAUGGACAGAAGGGUGGAGCAA [G5U G8U C9U C44U A45G] | 0.043
42 | AGUUGCUUCUGGGAGCUCCAGCACAGUGAAAUGGACAGAAGGGCAGAGCAA [G8U] | 1.2
43 | AGUUGCUGCUGGGAGCUCCAGCACAGUGAAAUGGACAGAAGGGCUGAGCAA [A45U] | 0.318
44 | AGUUCACACAGGGAGCUCCAGCUAAGUGAAAUGGACAGAAGGGCAGAGCAA [G5C C6A U7C G8A U10A A23U C24A] | 0.0357
45 | AGUUGACGACGGGAGCUCCAAGACAGUGAAAUGGACAGAAGGGCAGAGCAA [C6A U7C C9A U10C G21A C22G] | 3.04
46 | AGUUGCUGCUAGGAGCUCCAGCACAGUGAAAUGGACAGAAGGGCAGAGCAA [G11A] | 0.618
47 | AGUUGACGACGGGAGCUCCAGCGAAGUGAAAUGGACAGAAGGGCAGAGCAA [C6A U7C C9A U10C A23G C24A] | 4.13
48 | AGUUAUAUAUGGGAGCUCCAGCACCAUGAAAUGGACAGAAGGGCAGAGCAA [G5A C6U U7A G8U C9A A25C G26A] | 0.223
49 | AGUUUCUUUUGGGUGCUCCAGCACAGUGAAAUGGACAGAAGGGCAGAGCAA [G5U G8U C9U A14U] | 0.0126
50 | AGUUCACACAGGGAGCUCCAGCACAGUGAAAUGGCUAGAAGGGCAGAGCAA [G5C C6A U7C G8A U10A A35C C36U] | 0.0111
51 | AGUUAUAUAUGGGAGCUACAGCACAGUGAAAUGGACAGAAGGGCAGAGCAA [G5A C6U U7A G8U C9A C18A] | 0.017

— the RNAGym collection of RNA variant scans (doi:10.1101/gr.219683.116)
